Measured values as given in patent US12070483B2, “Compositions and methods for treatment of acute lung injury” (THE TRUSTEES OF THE UNIVERSITY OF PENNSYLVANIA, priority 2018, dated 2024).

Assays:
recombinant hPrdx6 = molecular target: T1, recombinant hPrdx6 (Homo sapiens, UniProt P30041); experiment: aiPLA2 activity of recombinant human Prdx6 in presence of peptide; type: biochemical; details: for aiPLA2 activity of human recombinant Prdx6: Table 3, hPrdx6 only 99.91; for aiPLA2 activity of human recombinant protein: Table 2, hPrdx6 only 92.0; for aiPLA2 activity of recombinant hPrdx6: Table 1, hPrdx6 only (no peptide) 93.4
T1 sequence (P30041 1-224): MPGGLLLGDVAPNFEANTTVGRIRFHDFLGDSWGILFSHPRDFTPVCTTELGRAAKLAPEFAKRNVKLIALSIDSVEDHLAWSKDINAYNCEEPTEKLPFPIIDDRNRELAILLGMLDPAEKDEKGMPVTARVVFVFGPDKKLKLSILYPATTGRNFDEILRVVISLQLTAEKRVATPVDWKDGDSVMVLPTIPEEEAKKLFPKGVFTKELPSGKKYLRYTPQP

Prdx6 = molecular target: T2, Prdx6 (Mus musculus, UniProt O08709); experiment: aiPLA2 (Prdx6-PLA2) activity of mouse lung homogenate after IT or IV injection of PIP; type: in vivo; details: Table 6
T2 construct: from tissue; host or cells: mouse lung homogenate (wild type mice)
T2 sequence (O08709 1-224): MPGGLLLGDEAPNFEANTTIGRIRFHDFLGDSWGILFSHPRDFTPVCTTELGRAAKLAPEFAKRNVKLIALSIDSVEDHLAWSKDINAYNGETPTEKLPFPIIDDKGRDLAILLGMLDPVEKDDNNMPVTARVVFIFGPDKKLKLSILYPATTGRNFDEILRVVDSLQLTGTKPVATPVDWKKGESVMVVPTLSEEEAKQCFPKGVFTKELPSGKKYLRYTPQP
Protocol: FIG. 6: PIP-2 in liposomes was administered to mice either intratracheally (IT) or intravenously (IV) at 0 time. Lungs were harvested at intervals between 4 and 72 h after the PIP-2 administration, homogenized, and analyzed for Prdx6-PLA2 activity. PIP-2 is effective by either the IT or IV route with a calculated ½ time for recovery of ˜50 h. Results are mean+SE for N=3-4.
PIP-2 in liposomes injected IV or IT inhibits Prdx6 activity of the lung homogenate. Maximal inhibition was seen within 4 hours after administration of PIP-2. Recovery from inhibition began at ˜36 hours and was complete by 48 hours. Results are similar for PIP-1,2,4 (PIP-3 and -5 were not tested). […] Effectiveness requires liposomes for peptide delivery. Inhibition after IT or IV administration was similar.

[1] = system: mouse models of LPS-induced ALI; details: previous studies; cited from earlier work
NOX2 = experiment: ROS production (Amplex red) of isolated perfused mouse lung stimulated with angiotensin II; type: in vivo; details: mouse, ex_vivo
Protocol: FIGS. 5A and 5B: PIP-2, incorporated within liposomes, was instilled intratracheally prior to lung isolation. FIG. 5A: Isolated lungs were perfused in a recirculating system with artificial medium. NOX2 activity was stimulated by addition of angiotensin II (Ang II). Amplex red along with horseradish peroxidase were added to the perfusate for detection of ROS production. Aliquots of perfusate were analyzed at intervals by spectrophotometry to determine oxidation of amplex red, indicating ROS production. Results are mean±SE for N=3-4. FIG. 5B: Mice were sacrificed at 6, 12, or 24 h after LPS administration ([…]) and lungs were perfused in situ for 15 min with saline solution containing a fluorophore (difluorofluorescein diacetate, DFFDA). Lungs then were homogenized and fluorescence of the lung homogenate was determined as an index of ROS production. Results for FIG. 5A & FIG. 5B are mean±SE for N=4. *P<0.05 vs corresponding LPS and LPS+PIP-2; § P<0.05 vs 12 h and 24 h LPS; ΔP<0.05 vs corresponding LPS.
FIG. 8: PLA2 inhibitory peptide (PIP-2) inhibits ROS production stimulated by angiotensin II (Ang II) in isolated perfused mouse lung. PIP-2 (2 μg/g body weight) was administered to intact wild type (WT) mice by the IV route. […] After 30 mins, lungs were isolated from anesthesized mice and perfused in a recirculating system with added Ang II ([…]) as a Nox2 activator and Amplex red plus horseradish peroxidase to detect perfusate ROS. WT basal lungs were not stimulated with Ang II. After a 15 min equilibration period (called zero time), aliquots were taken at 15 min intervals for analysis of fluorescence. Each plotted point represents the mean±SE for n=3. The lines were drawn by the least mean squares method. The mean rates of ROS […] calculated from the slope of each line are indicated in parentheses. *P<0.05 vs the other 3 slopes.
FIG. 10: Effect of liposome composition on delivery of PIP-2 to lungs after IV administration. […]
The effect of the PIPs on ROS production in control (untreated) lungs was determined in vitro with isolated perfused lungs. […] The basal rate of ROS production was evaluated with WT lungs that were perfused in the absence of AngII. […] Aliquots of perfusate were taken at 15 min intervals and analyzed by fluorescence for resorufin (λexcitation 568 nm, λemission 581 nm), the product of Amplex red oxidation. The rate of Amplex red oxidation was calculated and expressed as arbitrary fluorescence units (AFU) with normalization to mouse body wt. There was a low rate of Amplex red oxidation in the absence of HRP in the perfusate (˜7% of the AngII-stimulated fluorescence), indicating a non-ROS-mediated oxidation of the fluorophore; this value was subtracted to obtain the reported values.

Molecule	aiPLA2 activity of human recombinant Prdx6 (recombinant hPrdx6)	aiPLA2 activity of recombinant hPrdx6 (recombinant hPrdx6)	further results
LYEIKHQI [SEQ ID NO: 23]	–	–	aiPLA2 activity of human recombinant protein (recombinant hPrdx6): 92.1 nmol/min/mg prot.
TLHDFRHQIL (Inhibitory peptide.) [SEQ ID NO: 19]	–	–	aiPLA2 activity of human recombinant protein (recombinant hPrdx6): 31.5 nmol/min/mg prot.
ELYEIKHQI (Inhibitory peptide.) [SEQ ID NO: 22]	–	–	aiPLA2 activity of human recombinant protein (recombinant hPrdx6): 93.5 nmol/min/mg prot.
TLHDFRHQI (Inhibitory peptide.) [SEQ ID NO: 20]	–	–	aiPLA2 activity of human recombinant protein (recombinant hPrdx6): 89.6 nmol/min/mg prot.
YEIKHQIL (Inhibitory peptide.) [SEQ ID NO: 13]	–	94.4 nmol/min/mg prot.	–
DEELQTELYEIK (Inhibitory peptide.) [SEQ ID NO: 16]	–	95.7 nmol/min/mg prot.	–
LHDFRHQI [SEQ ID NO: 21]	–	–	aiPLA2 activity of human recombinant protein (recombinant hPrdx6): 93.6 nmol/min/mg prot.
ELYEIKHQIL (Inhibitory peptide.) [SEQ ID NO: 12]	–	28.6 nmol/min/mg prot.	–
QTELYEIKHQIL (Inhibitory peptide.) [SEQ ID NO: 11]	–	31.5 nmol/min/mg prot.	–
DEELQTEL [SEQ ID NO: 18]	–	93.6 nmol/min/mg prot.	–
CCCCCCCCCCCCCCCCOCC(COCC(F)(F)F)OP(=O)(O)OC (centres unmarked) [MJ33]	–	–	protection in LPS-induced ALI [1]: protection
DEELQTELYEI (Inhibitory peptide.) [SEQ ID NO: 17]	–	94.9 nmol/min/mg prot.	–
ELQTELYEIKHQIL (Inhibitory peptide.) [SEQ ID NO: 10]	–	33.2 nmol/min/mg prot.	–
DEELQTELYEIKHQ (Inhibitory peptide.) [SEQ ID NO: 15]	–	102 nmol/min/mg prot.	–
IKHQIL (DEELQTELYEIKHQ; Inhibitory peptide.) [SEQ ID NO: 14]	–	97.1 nmol/min/mg prot.	–

Second part, led by results:

aiPLA2 activity of human recombinant Prdx6 (recombinant hPrdx6)	aiPLA2 activity of recombinant hPrdx6 (recombinant hPrdx6)	Molecule	further results
98.97 nmol/min/mg prot.	–	LHDFRHNIL [SN026]	–
98.97 nmol/min/mg prot.	–	LRFDHHQIL [SN020]	–
–	45.0 nmol/min/mg prot.	DEELQATLHDFRHQIL (Inhibitory peptide.) [PIP-1, 16 residue human peptide]	Prdx6-PLA2 activity of mouse lung homogenate (Prdx6; IT, lungs lavaged prior to assay, 0 post injection): 9.0 ± 0.2 nmol/hr/mg protein; Prdx6-PLA2 activity of mouse lung homogenate (Prdx6; IT, lungs lavaged, 4 hr post injection): 1.6 ± 0.1 nmol/hr/mg protein; Prdx6-PLA2 activity of mouse lung homogenate (Prdx6; IT, lungs lavaged, 12 hr post injection): 1.6 ± 0.1 nmol/hr/mg protein; Prdx6-PLA2 activity of mouse lung homogenate (Prdx6; IT, lungs lavaged, 24 hr post injection): 1.7 ± 0.2 nmol/hr/mg protein; Prdx6-PLA2 activity of mouse lung homogenate (Prdx6; IT, lungs lavaged, 48 hr post injection): 2.9 ± 0.2 nmol/hr/mg protein; Prdx6-PLA2 activity of mouse lung homogenate (Prdx6; IV, 0 post injection): 8.8 ± 0.3 nmol/hr/mg protein; Prdx6-PLA2 activity of mouse lung homogenate (Prdx6; IV, 4 hr post injection): 1.4 nmol/hr/mg protein; Prdx6-PLA2 activity of mouse lung homogenate (Prdx6; IV, 12 hr post injection): 1.5 nmol/hr/mg protein; Prdx6-PLA2 activity of mouse lung homogenate (Prdx6; IV, 24 hr post injection): 1.8 ± 0.1 nmol/hr/mg protein
97.67 nmol/min/mg prot.	–	LKIEYHQIL [SN019]	–
102.04 nmol/min/mg prot.	–	LHDFRDQIL [SN024]	–
99.42 nmol/min/mg prot.	–	LHEFKHQIL [SN022]	–
97.95 nmol/min/mg prot.	–	LFKLEHQIL [SN023]	–
101.34 nmol/min/mg prot.	–	LHDFRPQIL [SN025]	–
29.74 nmol/min/mg prot.	–	LYDIRHQIL (Inhibitory peptide.) [PIP-5]	ROS production by AngII-activated NOX2 in the isolated mouse lung (NOX2): inhibit ROS production
–	32.0 nmol/min/mg prot.	DEELQTELYEIKHQIL (Inhibitory peptide.) [PIP-3, 16 residue rat, mouse peptide]	aiPLA2 activity of recombinant hPrdx6 (recombinant hPrdx6; listed as SEQ ID NO: 9): 20.1 nmol/min/mg prot.; aiPLA2 activity of human recombinant protein (recombinant hPrdx6): 32.0 nmol/min/mg prot.
102.45 nmol/min/mg prot.	–	LHDFRHQLL (LHDFRHQTL; Inhibitory peptide.) [SN028]	–
